What was measured:
HLA-B*07:02 [1] = experiment: IEDB peptide-MHC binding, purified MHC/competitive/fluorescence; filed as Kd, often an IC50 or EC50 that approximates it; ≥ and ≤ were set here for values at or beyond the usual limits of such assays; conditions: source organism: Francisella tularensis subsp. tularensis FSC198
HLA-A*30:01 = experiment: as above; conditions: source organism: Francisella tularensis subsp. tularensis FSC198
HLA-A*26:02 = experiment: as above; conditions: source organism: Francisella tularensis subsp. tularensis FSC198
HLA-A*02:03 = experiment: as above; conditions: source organism: Francisella tularensis subsp. tularensis FSC198
HLA-B*15:01 [2] = experiment: as above
HLA-B*18:01 [3] = experiment: IEDB peptide-MHC binding, purified MHC/direct/fluorescence; filed as Kd, often an IC50 or EC50 that approximates it; ≥ and ≤ were set here for values at or beyond the usual limits of such assays
HLA-B*58:01 = experiment: as above
HLA-A*11:01 = experiment: as above
HLA-A*26:01 [4] = experiment: as above
HLA-B*08:03 = experiment: as above; conditions: source organism: Francisella tularensis subsp. tularensis FSC033
HLA-A*69:01 [5] = experiment: as above
HLA-A*31:01 = experiment: as above
HLA-A*02:01 [6] = experiment: as above
HLA-A*01:01 = experiment: as above
HLA-A*68:02 [7] = experiment: as above
HLA-B*57:01 [8] = experiment: as above
HLA-B*08:01 = experiment: as above
HLA-B*18:01 [9] = experiment: IEDB peptide-MHC binding, purified MHC/competitive/fluorescence; filed as Kd, often an IC50 or EC50 that approximates it; ≥ and ≤ were set here for values at or beyond the usual limits of such assays
HLA-B*51:01 = experiment: as above
HLA-B*39:01 = experiment: as above
HLA-A*26:01 [10] = experiment: as above
HLA-B*27:03 = experiment: as above
HLA-A*69:01 [11] = experiment: as above
HLA-B*46:01 = experiment: as above; conditions: source organism: Pan troglodytes
HLA-A*03:01 [12] = experiment: as above; conditions: source organism: Pan troglodytes
HLA-A*02:01 [13] = experiment: as above
HLA-A*68:02 [14] = experiment: as above; conditions: source organism: Pan troglodytes
HLA-B*57:01 [15] = experiment: as above
HLA-B*15:17 [16] = experiment: as above
HLA-A*02:06 = experiment: as above; conditions: source organism: Orthomarburgvirus marburgense
HLA-B*07:02 [17] = experiment: IEDB peptide-MHC binding, purified MHC/direct/fluorescence; filed as Kd, often an IC50 or EC50 that approximates it; ≥ and ≤ were set here for values at or beyond the usual limits of such assays
HLA-B*15:09 = experiment: as above; conditions: source organism: Ravn virus - Ravn, Kenya, 1987
HLA-B*40:01 = experiment: as above
HLA-B*48:01 = experiment: as above; conditions: source organism: Marburg virus - Musoke, Kenya, 1980
HLA-B*27:05 = experiment: as above
HLA-B*15:17 [18] = experiment: as above; conditions: source organism: Marburg virus - Musoke, Kenya, 1980
HLA-A*29:02 = experiment: as above; conditions: source organism: Limestone Canyon virus
HLA-A*02:19 = experiment: as above; conditions: source organism: Limestone Canyon virus
HLA-A*02:16 = experiment: as above; conditions: source organism: Limestone Canyon virus
HLA-A*02:12 = experiment: as above; conditions: source organism: Limestone Canyon virus
HLA-A*03:01 [19] = experiment: as above
HLA-C*15:02 = experiment: as above; conditions: source organism: Four Corners hantavirus
HLA-B*44:02 = experiment: as above; conditions: source organism: Salmonella enterica subsp. enterica serovar Typhi
HLA-B*35:01 = experiment: as above; conditions: source organism: Salmonella enterica subsp. enterica serovar Typhi
HLA-A*24:03 = experiment: as above; conditions: source organism: Salmonella enterica subsp. enterica serovar Typhi
HLA-B*15:01 [20] = experiment: as above; conditions: source organism: Salmonella enterica subsp. enterica serovar Typhi
[21] = source organism: Francisella tularensis subsp. holarctica LVS
[22] = source organism: Pan troglodytes
[23] = source organism: Marburg virus - Musoke, Kenya, 1980
[24] = source organism: Ravn virus - Ravn, Kenya, 1987
[25] = source organism: Four Corners hantavirus
[26] = source organism: Salmonella enterica subsp. enterica serovar Typhi

For EFKRRLKDL, the Kd (HLA-B*07:02 [1]) was at least 20 µM, the Kd (HLA-A*30:01) was at least 20 µM and the Kd (HLA-A*26:02) was at least 20 µM. The Kd (HLA-A*02:03) was at least 20 µM, the Kd (HLA-B*15:01 [2]; source organism: Francisella tularensis subsp. tularensis FSC198) was at least 20 µM and the Kd (HLA-B*18:01 [3]; [21]) was at least 20 µM. The Kd (HLA-B*58:01; [21]) was at least 20 µM, the Kd (HLA-A*11:01; [21]) was at least 20 µM and the Kd (HLA-A*26:01 [4]; source organism: Francisella tularensis subsp. tularensis FSC033) was at least 20 µM. For the same sequence, the Kd (HLA-B*08:03) was at least 20 µM, the Kd (HLA-A*69:01 [5]; [21]) was at least 20 µM and the Kd (HLA-A*31:01; [21]) was at least 20 µM. For the same sequence, the Kd (HLA-A*02:01 [6]; [21]) was at least 20 µM, the Kd (HLA-A*01:01; [21]) was at least 20 µM and the Kd (HLA-A*68:02 [7]; [21]) was at least 20 µM. The Kd (HLA-B*57:01 [8]; [21]) was at least 20 µM and the Kd (HLA-B*08:01; [21]) was 0.0523 µM.
FLFDRLTNG showed a Kd (HLA-B*18:01 [9]; [22]) of at least 20 µM, a Kd (HLA-B*51:01; [22]) of at least 20 µM and a Kd (HLA-B*39:01; [22]) of at least 20 µM. For the same sequence, the Kd (HLA-A*26:01 [10]; [22]) was at least 20 µM, the Kd (HLA-B*27:03; [22]) was at least 20 µM and the Kd (HLA-A*69:01 [11]; [22]) was at least 20 µM. It also gave a Kd (HLA-B*46:01) of at least 20 µM, a Kd (HLA-A*03:01 [12]) of at least 20 µM and a Kd (HLA-A*02:01 [13]; [22]) of 0.0015 µM. It also gave a Kd (HLA-B*15:01 [2]; [22]) of at least 20 µM, a Kd (HLA-A*68:02 [14]) of at least 20 µM and a Kd (HLA-B*57:01 [15]; [22]) of at least 20 µM. The Kd (HLA-B*15:17 [16]; [22]) was at least 20 µM.
In the case of GEGSGARLL, the Kd (HLA-A*02:06) is reported as 1.14 µM, the Kd (HLA-A*02:01 [13]; source organism: Orthomarburgvirus marburgense) is reported as 4.69 µM and the Kd (HLA-B*18:01 [3]; [23]) is reported as at least 20 µM. It also gave a Kd (HLA-B*58:01; [23]) of at least 20 µM, a Kd (HLA-A*11:01; [23]) of at least 20 µM and a Kd (HLA-B*07:02 [17]; [23]) of at least 20 µM. The Kd (HLA-A*26:01 [4]; [24]) was at least 20 µM, the Kd (HLA-A*69:01 [5]; [23]) was at least 20 µM and the Kd (HLA-B*15:09) was at least 20 µM. The Kd (HLA-B*40:01; [23]) was 0.279 µM, the Kd (HLA-B*48:01) was at least 20 µM and the Kd (HLA-B*27:05; [23]) was at least 20 µM. It also gave a Kd (HLA-A*31:01; [23]) of at least 20 µM, a Kd (HLA-A*01:01; [23]) of at least 20 µM and a Kd (HLA-A*68:02 [7]; [23]) of at least 20 µM. It also gave a Kd (HLA-B*57:01 [8]; [23]) of at least 20 µM, a Kd (HLA-B*15:17 [18]) of at least 20 µM and a Kd (HLA-B*08:01; [24]) of at least 20 µM.
In the case of KARNIISPV, the Kd (HLA-B*18:01 [9]; [25]) is reported as at least 20 µM, the Kd (HLA-B*51:01; [25]) is reported as at least 20 µM and the Kd (HLA-B*39:01; [25]) is reported as at least 20 µM. It also gave a Kd (HLA-A*26:01 [10]; [25]) of at least 20 µM, a Kd (HLA-B*27:03; [25]) of at least 20 µM and a Kd (HLA-A*69:01 [11]; [25]) of at least 20 µM. It also gave a Kd (HLA-B*15:01 [2]; [25]) of at least 20 µM, a Kd (HLA-B*57:01 [15]; [25]) of at least 20 µM and a Kd (HLA-B*15:17 [16]; [25]) of at least 20 µM. It also gave a Kd (HLA-B*07:02 [17]; source organism: Hantavirus Monongahela-3) of 0.107 µM, a Kd (HLA-A*29:02) of at least 20 µM and a Kd (HLA-A*02:19) of at least 20 µM. It also gave a Kd (HLA-A*02:16) of at least 20 µM, a Kd (HLA-A*02:12) of at least 20 µM and a Kd (HLA-A*03:01 [19]; source organism: Limestone Canyon virus) of at least 20 µM. It also gave a Kd (HLA-C*15:02) of 0.088 µM.
With LPLIVDTAA the Kd (HLA-B*58:01; [26]) was at least 20 µM, the Kd (HLA-A*11:01; [26]) was at least 20 µM and the Kd (HLA-B*07:02 [17]; [26]) was 5.75 µM. It also gave a Kd (HLA-A*26:01 [4]; [26]) of at least 20 µM, a Kd (HLA-A*69:01 [5]; [26]) of at least 20 µM and a Kd (HLA-B*44:02) of at least 20 µM. It also gave a Kd (HLA-B*35:01) of 0.00636 µM, a Kd (HLA-B*40:01; [26]) of at least 20 µM and a Kd (HLA-A*24:03) of at least 20 µM. The Kd (HLA-B*27:05; [26]) was at least 20 µM, the Kd (HLA-A*03:01 [19]; [26]) was at least 20 µM and the Kd (HLA-A*31:01; [26]) was at least 20 µM. For the same sequence, the Kd (HLA-A*02:01 [6]; [26]) was at least 20 µM, the Kd (HLA-B*15:01 [20]) was at least 20 µM and the Kd (HLA-A*01:01; [26]) was at least 20 µM. It also gave a Kd (HLA-B*08:01; [26]) of 11.2 µM.
